Data as given in paper PMC6457497, “The H3K27me3 demethylase REF6 promotes leaf senescence through directly activating major senescence regulatory and functional genes in Arabidopsis”.

B1: NYE1 WT probe (dsDNA)
DNA 1: AAAGGAGTCTCTCTGTATTTAGTGGCGT
DNA 2: ACGCCACTAAATACAGAGAGACTCCTTT
B2: NYE2 WT probe (dsDNA)
DNA 1: CAAAAAGGGTCTCTGTATTTAGTTATTA
DNA 2: TAATAACTAAATACAGAGACCCTTTTTG
B3: EIN2 WT probe (dsDNA)
DNA 1: AGGAACCATTCTCTGGATAAACCCTAGC
DNA 2: GCTAGGGTTTATCCAGAGAATGGTTCCT
B4: ORE1 WT probe (dsDNA)
DNA 1: TACTCGGATCCTCTGTTTTTACAAGACA
DNA 2: TGTCTTGTAAAAACAGAGGATCCGAGTA
B5: NAP WT probe (dsDNA)
DNA 1: TTTCTCCAAACTCTGTTTTCTCTGTAAA
DNA 2: TTTACAGAGAAAACAGAGTTTGGAGAAA

How the values were obtained:
[1] = target: T1, GST-REF6C (C2H2 ZnF domain) (Arabidopsis thaliana, UniProt Q9STM3 1239-1360); assay: EMSA; competed by excess unlabeled probe; Light Shift EMSA kit binding buffer (composition, salt, pH not stated), poly(dI-dC), 4 ug protein in 20 ul, room temperature 30 min; 5% polyacrylamide gel with; settings: protein: recombinant; tags: N-terminal GST; label: biotin; blunt
T1 sequence: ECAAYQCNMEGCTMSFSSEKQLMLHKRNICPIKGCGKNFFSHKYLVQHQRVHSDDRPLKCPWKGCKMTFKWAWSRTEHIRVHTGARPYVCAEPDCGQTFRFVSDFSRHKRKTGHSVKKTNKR

[2] = target: T1, GST-REF6C (C2H2 ZnF domain); assay: EMSA; Light Shift EMSA kit binding buffer (composition, salt, pH not stated), poly(dI-dC), 4 ug protein in 20 ul, room temperature 30 min; 5% polyacrylamide gel with; settings: protein: recombinant; tags: N-terminal GST; label: biotin; blunt

Row | Binder | binding result [1] | binding result [2]
1 | B1 | binds | 
2 | B2 |  | binds
3 | B3 |  | binds
4 | B4 |  | binds
5 | B5 |  | binds
